Measurements taken from patent US20230295275A1 (FLAGSHIP PIONEERING INNOVATIONS VI, published 2023).

B1: AB-1 full-length IgG1 (antibody, V domains shown)
VH: QMQLVQSGTEVKKPGESLKISCKGSGYGFITVWIGWVRQMPGKGLEWMGIIYPGDSETRYSPSFQGQVTISADKSINTAYLQWSSLKASDTAIYYCAGGSGISTPMDVWGQGTTVTVSS
VL: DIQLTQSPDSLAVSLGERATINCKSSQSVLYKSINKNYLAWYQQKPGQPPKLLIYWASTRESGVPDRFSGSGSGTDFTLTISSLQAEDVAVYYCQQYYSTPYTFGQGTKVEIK
B2: AB-2 full-length IgG1 (antibody, V domains shown)
VH: QMQLVQSGTEVKKPGESLKISCKGSGSGTITVWIGWVRQMPGKGLEWMGIIYPGDSETRYSPSFQGQVTISADKSINTAYLQWSSLKASDTAIYYCAGGSGISTPMDVWGQGTTVTVSS
VL: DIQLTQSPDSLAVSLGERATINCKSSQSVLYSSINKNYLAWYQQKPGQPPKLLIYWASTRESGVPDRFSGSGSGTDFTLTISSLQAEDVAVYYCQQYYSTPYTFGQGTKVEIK
B3: AB-4 full-length IgG1 (antibody, V domains shown)
VH: QMQLVQSGTEVKKPGESLKISCKGSGSGFITYWIGWVRQMPGKGLEWMGIIYPGDSETRYSPSFQGQVTISADKSINTAYLQWSSLKASDTAIYYCAGGSGIHTPMDVWGQGTTVTVSS
VL: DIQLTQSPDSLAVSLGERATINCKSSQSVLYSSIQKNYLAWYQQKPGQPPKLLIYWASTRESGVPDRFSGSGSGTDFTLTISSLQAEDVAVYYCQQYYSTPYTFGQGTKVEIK
B4: AB-3 full-length IgG1 (antibody, V domains shown)
VH: QMQLVQSGTEVKKPGESLKISCKGSGSGFITVWIGWVRQMPGKGLEWMGIIYPGDSETRYSPSFQGQVTISADKSINTAYLQWSSLKASDTAIYYCAGGSGISTPMDVWGQGTTVTVSS
VL: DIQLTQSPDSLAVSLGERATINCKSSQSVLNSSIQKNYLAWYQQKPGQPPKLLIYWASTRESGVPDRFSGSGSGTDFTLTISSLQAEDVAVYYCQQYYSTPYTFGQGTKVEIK

Key:
[1] = biological target: soluble G614 HexaPro spike ectodomain (SARS-CoV-2, UniProt P0DTC2 14-1208)
D614 SARS-CoV-2 spike = D614 SARS-CoV-2 spike (SARS-CoV-2, UniProt P0DTC2 14-1208)

Binder | Kd [1] [nM] | Kd (D614 SARS-CoV-2 spike) [nM]
B1 | 3.39 | 1.66
B2 | 2.79 | 1.48
B3 | 2.71 | 1.72
B4 | 1.74 | 0.907
